This note sets out measurements from US20230250154A1 (CYTONICS, published 2023).

What all share (test): cell-based or functional assay
One assay has as its target T1, ADAMTS5 (human, UniProt Q9UNA0 262-622, limits assumed).
T1 sequence (looked up): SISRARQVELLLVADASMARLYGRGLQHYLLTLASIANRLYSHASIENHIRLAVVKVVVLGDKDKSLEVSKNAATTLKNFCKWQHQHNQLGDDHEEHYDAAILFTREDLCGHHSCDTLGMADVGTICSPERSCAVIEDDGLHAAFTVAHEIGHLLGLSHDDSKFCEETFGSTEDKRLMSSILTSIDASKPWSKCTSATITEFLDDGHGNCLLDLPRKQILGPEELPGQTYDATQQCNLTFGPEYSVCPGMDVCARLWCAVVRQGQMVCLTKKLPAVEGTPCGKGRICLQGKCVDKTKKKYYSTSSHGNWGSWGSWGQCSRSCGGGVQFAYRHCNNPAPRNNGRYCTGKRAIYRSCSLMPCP

In the next assay the target is T2, ADAMTS4 (human, UniProt O75173 213-685, limits assumed).
T2 sequence (looked up): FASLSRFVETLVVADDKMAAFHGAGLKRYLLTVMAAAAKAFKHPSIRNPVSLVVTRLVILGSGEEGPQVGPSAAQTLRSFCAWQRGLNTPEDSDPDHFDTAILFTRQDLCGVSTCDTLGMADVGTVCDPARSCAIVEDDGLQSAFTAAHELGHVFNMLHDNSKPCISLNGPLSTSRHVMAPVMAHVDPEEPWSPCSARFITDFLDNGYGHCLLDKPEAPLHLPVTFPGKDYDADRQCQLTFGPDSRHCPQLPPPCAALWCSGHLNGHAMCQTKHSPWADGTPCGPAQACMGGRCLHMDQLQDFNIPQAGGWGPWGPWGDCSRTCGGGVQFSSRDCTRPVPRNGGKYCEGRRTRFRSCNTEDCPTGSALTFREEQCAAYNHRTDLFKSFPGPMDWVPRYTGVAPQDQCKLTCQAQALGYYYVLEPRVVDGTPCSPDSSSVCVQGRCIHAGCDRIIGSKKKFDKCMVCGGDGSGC

The next assay deals with MMP13 (human, UniProt P45452 104-471, limits assumed).

B1: Variant A2M, bait region SEQ ID NO 116 (other)
chain: SVSGKPQYMVLVPSLLHTETTEKGCVLLSYLNETVTVSASLESVRGNRSLFTDLEAENDVLHCVAFAVPKSSSNEEVMFLTVQVKGPTQEFKKRTTVMVKNEDSLVFVQTDKSIYKPGQTVKFRVVSMDENFHPLNELIPLVYIQDPKGNRIAQWQSFQLEGGLKQFSFPLSSEPFQGSYKVVVQKKSGGRTEHPFTVEEFVLPKFEVQVTVPKIITILEEEMNVSVCGLYTYGKPVPGHVTVSICRKYSDASDCHGEDSQAFCEKFSGQLNSHGCFYQQVKTKVFQLKRKEYEMKLHTEAQIQEEGTVVELTGRQSSEITRTITKLSFVKVDSHFRQGIPFFGQVRLVDGKGVPIPNKVIFIRGNEANYYSNATTDEHGLVQFSINTTNVMGTSLTVRVNYKDRSPCYGYQWVSEEHEEAHHTAYLVFSPSKSFVHLEPMSHELPCGHTQTVQAHYILNGGTLLGLKKLSFYYLIMAKGGIVRTGTHGLLVKQEDMKGHFSISIPVKSDIAPVARLLIYAVLPTGDVIGDSAKYDVENCLANKVDLSFSPSQSLPASHAHLRVTAAPQSVCALRAVDQSVLLMKPDAELSASSVYNLLPEKDLTGFPGPLNDQDDEDCINRHNVYINGITYTPVSSTNEKDMYSFLEDMGLKAFTNSKIRKPKMCPQLEELEGRGSKEEEGLGSIPENFFGVFYESDVMGRGHARLVHVEEPHTKLRKYFPETWIWDLVVVNSAGVAEVGVTVPDTITEWKAGAFCLSEDAGLGISSTASLRAFQPFFVELTMPYSVIRGEAFTLKATVLNYLPKCIRVSVQLEASPAFLAVPVEKEQAPHCICANGRQTVSWAVTPKSLGNVNFTVSAEALESQELCGTEVPSVPEHGRKDTVIKPLLVEPEGLEKETTFNSLLCPSGGEVSEELSLKLPPNVVEESARASVSVLGDILGSAMQNTQNLLQMPYGCGEQNMVLFAPNIYVLDYLNETQQLTPEIKSKAIGYLNTGYQRQLNYKHYDGSYSTFGERYGRNQGNTWLTAFVLKTFAQARAYIFIDEAHITQALIWLSQRQKDNGCFRSSGSLLNNAIKGGVEDEVTLSAYITIALLEIPLTVTHPVVRNALFCLESAWKTAQEGDHGSHVYTKALLAYAFALAGNQDKRKEVLKSLNEEAVKKDNSVHWERPQKPKAPVGHFYEPQAPSAEVEMTSYVLLAYLTAQPAPTSEDLTSATNIVKWITKQQNAQGGFSSTQDTVVALHALSKYGAATFTRTGKAAQVTIQSSGTFSSKFQVDNNNRLLLQQVSLPELPGEYSMKVTGEGCVYLQTSLKYNILPEKEEFPFALGVQTLPQTCDEPKAHTSFQISLSVSYTGSRSASNMAIVDVKMVSGFIPLKPTVKMLERSNHVSRTEVSSNHVLIYLDKVSNQTLSLFFTVLQDVPVRDLKPAIVKVYDYYETDEFAIAEYNAPCSKDLGNADYKDDDDKGASHHHHHH
Turning to B1, the “Protease Inhibition (% of WT)” value in the assay with ADAMTS5 was 92 % of WT; in the assay with ADAMTS4, 107 % of WT; in the assay with MMP13 it was 116 % of WT.

B2: Variant A2M, bait region SEQ ID NO 114 (other)
chain: SVSGKPQYMVLVPSLLHTETTEKGCVLLSYLNETVTVSASLESVRGNRSLFTDLEAENDVLHCVAFAVPKSSSNEEVMFLTVQVKGPTQEFKKRTTVMVKNEDSLVFVQTDKSIYKPGQTVKFRVVSMDENFHPLNELIPLVYIQDPKGNRIAQWQSFQLEGGLKQFSFPLSSEPFQGSYKVVVQKKSGGRTEHPFTVEEFVLPKFEVQVTVPKIITILEEEMNVSVCGLYTYGKPVPGHVTVSICRKYSDASDCHGEDSQAFCEKFSGQLNSHGCFYQQVKTKVFQLKRKEYEMKLHTEAQIQEEGTVVELTGRQSSEITRTITKLSFVKVDSHFRQGIPFFGQVRLVDGKGVPIPNKVIFIRGNEANYYSNATTDEHGLVQFSINTTNVMGTSLTVRVNYKDRSPCYGYQWVSEEHEEAHHTAYLVFSPSKSFVHLEPMSHELPCGHTQTVQAHYILNGGTLLGLKKLSFYYLIMAKGGIVRTGTHGLLVKQEDMKGHFSISIPVKSDIAPVARLLIYAVLPTGDVIGDSAKYDVENCLANKVDLSFSPSQSLPASHAHLRVTAAPQSVCALRAVDQSVLLMKPDAELSASSVYNLLPEKDLTGFPGPLNDQDDEDCINRHNVYINGITYTPVSSTNEKDMYSFLEDMGLKAFTNSKIRKPKMCPQLEAQEAGEGKEEEGLGSPVSQELGQRSELEGRGSPTEGEARGSKLRKYFPETWIWDLVVVNSAGVAEVGVTVPDTITEWKAGAFCLSEDAGLGISSTASLRAFQPFFVELTMPYSVIRGEAFTLKATVLNYLPKCIRVSVQLEASPAFLAVPVEKEQAPHCICANGRQTVSWAVTPKSLGNVNFTVSAEALESQELCGTEVPSVPEHGRKDTVIKPLLVEPEGLEKETTFNSLLCPSGGEVSEELSLKLPPNVVEESARASVSVLGDILGSAMQNTQNLLQMPYGCGEQNMVLFAPNIYVLDYLNETQQLTPEIKSKAIGYLNTGYQRQLNYKHYDGSYSTFGERYGRNQGNTWLTAFVLKTFAQARAYIFIDEAHITQALIWLSQRQKDNGCFRSSGSLLNNAIKGGVEDEVTLSAYITIALLEIPLTVTHPVVRNALFCLESAWKTAQEGDHGSHVYTKALLAYAFALAGNQDKRKEVLKSLNEEAVKKDNSVHWERPQKPKAPVGHFYEPQAPSAEVEMTSYVLLAYLTAQPAPTSEDLTSATNIVKWITKQQNAQGGFSSTQDTVVALHALSKYGAATFTRTGKAAQVTIQSSGTFSSKFQVDNNNRLLLQQVSLPELPGEYSMKVTGEGCVYLQTSLKYNILPEKEEFPFALGVQTLPQTCDEPKAHTSFQISLSVSYTGSRSASNMAIVDVKMVSGFIPLKPTVKMLERSNHVSRTEVSSNHVLIYLDKVSNQTLSLFFTVLQDVPVRDLKPAIVKVYDYYETDEFAIAEYNAPCSKDLGNADYKDDDDKGASHHHHHH
Consider B2, for which the figures for the “Protease Inhibition (% of WT)” value with ADAMTS5, with ADAMTS4 and with MMP13 were 237 % of WT, 118 % of WT and 75 % of WT, respectively.

B3: Variant A2M, bait region SEQ ID NO 115 (other)
chain: SVSGKPQYMVLVPSLLHTETTEKGCVLLSYLNETVTVSASLESVRGNRSLFTDLEAENDVLHCVAFAVPKSSSNEEVMFLTVQVKGPTQEFKKRTTVMVKNEDSLVFVQTDKSIYKPGQTVKFRVVSMDENFHPLNELIPLVYIQDPKGNRIAQWQSFQLEGGLKQFSFPLSSEPFQGSYKVVVQKKSGGRTEHPFTVEEFVLPKFEVQVTVPKIITILEEEMNVSVCGLYTYGKPVPGHVTVSICRKYSDASDCHGEDSQAFCEKFSGQLNSHGCFYQQVKTKVFQLKRKEYEMKLHTEAQIQEEGTVVELTGRQSSEITRTITKLSFVKVDSHFRQGIPFFGQVRLVDGKGVPIPNKVIFIRGNEANYYSNATTDEHGLVQFSINTTNVMGTSLTVRVNYKDRSPCYGYQWVSEEHEEAHHTAYLVFSPSKSFVHLEPMSHELPCGHTQTVQAHYILNGGTLLGLKKLSFYYLIMAKGGIVRTGTHGLLVKQEDMKGHFSISIPVKSDIAPVARLLIYAVLPTGDVIGDSAKYDVENCLANKVDLSFSPSQSLPASHAHLRVTAAPQSVCALRAVDQSVLLMKPDAELSASSVYNLLPEKDLTGFPGPLNDQDDEDCINRHNVYINGITYTPVSSTNEKDMYSFLEDMGLKAFTNSKIRKPKMCPQLEEEEGLGSKEEEGLGSPKEEEGLGSKEEEGLGSPKEEEGLGSKLRKYFPETWIWDLVVVNSAGVAEVGVTVPDTITEWKAGAFCLSEDAGLGISSTASLRAFQPFFVELTMPYSVIRGEAFTLKATVLNYLPKCIRVSVQLEASPAFLAVPVEKEQAPHCICANGRQTVSWAVTPKSLGNVNFTVSAEALESQELCGTEVPSVPEHGRKDTVIKPLLVEPEGLEKETTFNSLLCPSGGEVSEELSLKLPPNVVEESARASVSVLGDILGSAMQNTQNLLQMPYGCGEQNMVLFAPNIYVLDYLNETQQLTPEIKSKAIGYLNTGYQRQLNYKHYDGSYSTFGERYGRNQGNTWLTAFVLKTFAQARAYIFIDEAHITQALIWLSQRQKDNGCFRSSGSLLNNAIKGGVEDEVTLSAYITIALLEIPLTVTHPVVRNALFCLESAWKTAQEGDHGSHVYTKALLAYAFALAGNQDKRKEVLKSLNEEAVKKDNSVHWERPQKPKAPVGHFYEPQAPSAEVEMTSYVLLAYLTAQPAPTSEDLTSATNIVKWITKQQNAQGGFSSTQDTVVALHALSKYGAATFTRTGKAAQVTIQSSGTFSSKFQVDNNNRLLLQQVSLPELPGEYSMKVTGEGCVYLQTSLKYNILPEKEEFPFALGVQTLPQTCDEPKAHTSFQISLSVSYTGSRSASNMAIVDVKMVSGFIPLKPTVKMLERSNHVSRTEVSSNHVLIYLDKVSNQTLSLFFTVLQDVPVRDLKPAIVKVYDYYETDEFAIAEYNAPCSKDLGNADYKDDDDKGASHHHHHH
On to B3, for which the “Protease Inhibition (% of WT)” value was 163 % of WT in the assay with ADAMTS5, 108 % of WT with ADAMTS4 and 78 % of WT in the assay with MMP13.
